According to article PMC7322011:

Assay: plasma membrane level, fixed-cell imaging
Conditions: glycan lost; control: wild type

B1: peripheral myelin protein 22 (PMP22): N41Q (protein)
parent chain: MLLLLLSIIVLHVAVLVLLFVSTIVSQWIVGNGHATDLWQNCSTSSSGNVHHCFSSSPNEWLQSVQATMILSIIFSILSLFLFFCQLFTLTKGGRFYITGIFQILAGLCVMSAAAIYTVRHPEWHLNSDYSYGFAYILAWVAFPLALLSGVIYVILRKRE
  localisation_or_trafficking: increases
